Patent US20230295293A1, “BINDING MOLECULES AGAINST FRa” (AstraZeneca AB, priority 2022, published 2023)
Positions count from the first letter of the chain named.

B1: AB1370026: anti-FRα fully human IgG1 antibody; VH SEQ ID NO: 39, VL SEQ ID NO: 40 (antibody, V domains shown)
VH: EVQLVESGGGLVKPGGSLRLSCAASGFTFSSYAMSWVRQAPGKGLEWVSSISSGRSYIYYADSVKGRFTISRDNAKNSLYLKMNSLRDEDTAVYYCAREMQQLALDYWGQGTLVTVSS
VL: DIQMTQSPSSLSASVGDRVTITCRASQGISNFLAWFQQAPGKAPKSLIYAASSLQSGVPSKFSGSGSGTDFTLTISSLQPEDFATYYCQQYNSYPFTFGQGTKLEIK
B2: AB1370083: anti-FRα fully human IgG1 antibody; VH SEQ ID NO: 43, VL SEQ ID NO: 44 (antibody, V domains shown)
VH: EVQLVESGGGLVKPGGSLRLSCAASGFTFSSYNMNWVRQAPGKGLEWVSSISSGSSYIYYADSMKGRFTISRDNAKNSLFLQMNSLRAEDTAVYYCARGMTTLTFDYWGQGTLVTVSS
VL: B1 VL with N31T, A39K, G68E, N92I, F96L, Q100G, L104V
B3: AB1370095: anti-FRα fully human IgG1 antibody; VH SEQ ID NO: 45, VL SEQ ID NO: 46 (antibody, V domains shown)
VH: B2 VH with N33S, G54R, I58V, M64V, F80Y
VL: B1 VL with N31S, A39K, F96L, Q100G, L104V
B4: AB1370035: anti-FRα fully human IgG1 antibody; VH SEQ ID NO: 41, VL SEQ ID NO: 42 (antibody, V domains shown)
VH: QVQLQQSGPGLVKPSQTLSLTCAISGDSVSSNSAAWNWIRQSPSRGLEWLGRTYYRSNWYNDYTLSVKSRITVNPDTSKNQFSLQLNSVTPEDTAVYYCVRGVGRFDSWGQGTLVTVSS
VL: DIQMTQSPSTLSASVGDRVIITCRASQSISSWLAWYQQKPGKAPKLLIYKASSLESGVPSRFSGSGSGTEFTLTITSLQPDDFASYYCQEYKTYSIFTFGPGTKVDIK

What was measured:
human FRγ = molecular target: T1, human FRγ (Homo sapiens, UniProt P41439); test: HTRF antigen (IgG) binding assay; conditions: hybridoma supernatant, 1 nM biotinylated antigen; binder >30% delta F
T1 construct: CD33 signal peptide (N, cleaved yes); made in house
Procedure: (§1) The negative control ratio was derived from nonspecific binding (NSB) control wells. Curves were analysed using GraphPad Prism software using a four-parameter logistic curve-fitting equation.

mouse FRα = molecular target: T2, mouse FRα (Mus musculus, UniProt P35846); test: HTRF antigen (IgG) binding assay; conditions: hybridoma supernatant, 1 nM biotinylated antigen; binder >30% delta F
T2 construct: CD33 signal peptide (N, cleaved yes); made in house
Procedure: as §1

human FRα [1] = molecular target: T3, human FRα (Homo sapiens, UniProt P15328); test: HTRF antigen (IgG) binding assay; conditions: hybridoma supernatant, 1 nM biotinylated antigen; binder >30% delta F
T3 construct: CD33 leader (signal peptide) (N, cleaved yes); made in house; host or cells: in-house suspension-adapted CHO cell line
Procedure: as §1

human FRβ = molecular target: T4, human FRβ (Homo sapiens, UniProt P14207); test: HTRF antigen (IgG) binding assay; conditions: hybridoma supernatant, 1 nM biotinylated antigen; binder >30% delta F
T4 construct: CD33 signal peptide (N, cleaved yes); made in house
Procedure: as §1

human FRα [2] = molecular target: T3, human FRα; test: HTRF epitope competition assay with Comparator 1 IgG; format: binding; conditions: n > 2; human IgG1 format
Procedure: (§2) HTRF epitope competition assays were set up using a titration of test IgG, 1 nM streptavidin cryptate, biotinylated human FRα and DyLight 650 labelled IgG to assay volume of 10 μl. For the Comparator Antibody 1 and Comparator Antibody 2 assays, 0.5 nM biotinylated human FRα and 0.5 nM DyLight 650 labelled Comparator Antibody 1 or Comparator Antibody 2 was used. […] Assay plates were incubated for 3-4 h at room temperature prior to fluorescence measurement.

cyno FRα [3] = test: Biacore T200 surface plasmon resonance affinity; format: binding, cynomolgus monkey; conditions: SPR 25° C.
Procedure: (§3) Protein A was covalently immobilised to a CM5 chip surface using standard amine coupling techniques at a concentration of 50 μg/ml in 10 mM Sodium acetate, pH 4.0. The antibody was captured onto the Protein A surface in HBS-EP+ buffer, pH 7.4 at 10 μl/min to enable FRα ECD binding. The FRα ECD was serially diluted (0.4 nM-100 nM human FRα ECD; 0.8 nM-200 nM cyno FRα ECD; 30 nM-4000 nM mouse FRα ECD and rat FRα ECD) in HBS-EP+ buffer, pH 7.4 and flowed over the chip at 50 μl/min, with 2 minutes association and 8 minutes dissociation. The chip surface was fully regenerated with pulses of 3 M MgCl2 to remove captured antibody together with any bound FRα ECD. Multiple buffer-only injections were made under the same conditions to allow for double reference subtraction of the final sensorgram sets, which were analysed using Biacore T200 Evaluation Software to derive equilibrium dissociation constants.

[4] = Pharmacokinetics of anti-FRα antibodies in wild-type SCID mice; format: in vivo, mouse; conditions: 5 mg/kg iv bolus, total antibody
Procedure: Pharmacokinetic parameters were determined using Phoenix 64 software (Certara).
Plasma antibody concentrations were determined by the universal ELISA IgG assay.

human FRα [5] = molecular target: T3, human FRα; test: Biacore T200 surface plasmon resonance affinity; format: binding; conditions: SPR 25° C.
Procedure: as §3

human FRα [6] = molecular target: T3, human FRα; test: HTRF epitope competition assay with Comparator 3 IgG; format: binding; conditions: n > 2; human IgG1 format
Procedure: as §2

cyno FRα [7] = test: HTRF antigen (IgG) binding assay; design: species or system cynomolgus monkey; conditions: hybridoma supernatant, 1 nM biotinylated antigen; binder >30% delta F
Procedure: as §1

human FRα [8] = molecular target: T3, human FRα; test: HTRF epitope competition assay with Comparator 2 IgG; format: binding; conditions: n > 2; human IgG1 format
Procedure: as §2

[9] = Hydrophobic interaction chromatography (HIC) HPLC; format: physicochemical; conditions: higher retention = more hydrophobic
[10] = Accelerated thermal stability assay, HP-SEC; format: physicochemical; conditions: 2 weeks, 1 mg/ml in PBS
Procedure: IgG were diluted to 1 mg/ml in PBS then incubated at 4° C. or 45° C. for 2 weeks then filtered using filter spin columns (Millipore, UFC30HVNB). High performance-size exclusion chromatography (HP-SEC) was performed by loading 70 μl of IgG onto a TSKgel G3000SWXL; 5 μm, 7.8 mm×300 mm column using a flow rate of 1 ml/min and 0.1 M sodium phosphate dibasic anhydrous and 0.1 M sodium sulphate, pH 6.8 as the isocratic running buffer. Larger molecules are excluded from the pores of the size exclusion column to a greater extent than smaller molecules, and therefore elute earlier. Peaks eluting earlier than the monomer peak are recorded as aggregates. Peaks eluting after the monomer peak (excluding the buffer-related peak) are recorded as fragments. In parallel, antibodies were profiled in the HTRF epitope competition assay for changes in potency.

T2 sequence (P35846 with tags, fused parts or gaps): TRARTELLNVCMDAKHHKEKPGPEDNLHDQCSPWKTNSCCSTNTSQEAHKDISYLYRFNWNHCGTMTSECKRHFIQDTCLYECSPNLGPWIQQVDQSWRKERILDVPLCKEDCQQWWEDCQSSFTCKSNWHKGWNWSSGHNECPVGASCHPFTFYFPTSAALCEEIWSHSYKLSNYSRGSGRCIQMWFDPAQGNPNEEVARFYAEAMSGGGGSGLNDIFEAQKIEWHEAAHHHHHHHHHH
T4 sequence (P14207 with tags, fused parts or gaps): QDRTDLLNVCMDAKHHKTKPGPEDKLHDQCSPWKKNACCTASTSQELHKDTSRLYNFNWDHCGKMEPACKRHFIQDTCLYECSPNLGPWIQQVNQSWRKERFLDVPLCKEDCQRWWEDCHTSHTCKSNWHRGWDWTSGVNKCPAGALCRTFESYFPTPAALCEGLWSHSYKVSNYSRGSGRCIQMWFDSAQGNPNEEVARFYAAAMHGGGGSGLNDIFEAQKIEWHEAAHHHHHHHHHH
T3 sequence (P15328 with tags, fused parts or gaps): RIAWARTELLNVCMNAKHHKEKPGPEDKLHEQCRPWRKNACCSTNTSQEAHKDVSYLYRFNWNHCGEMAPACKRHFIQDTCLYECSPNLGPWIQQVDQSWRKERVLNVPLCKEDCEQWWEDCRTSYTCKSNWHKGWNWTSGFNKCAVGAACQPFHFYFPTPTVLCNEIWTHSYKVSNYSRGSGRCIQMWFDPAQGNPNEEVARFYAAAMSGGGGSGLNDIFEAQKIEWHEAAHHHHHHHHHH
Sequence of cyno FRα (as listed by the source): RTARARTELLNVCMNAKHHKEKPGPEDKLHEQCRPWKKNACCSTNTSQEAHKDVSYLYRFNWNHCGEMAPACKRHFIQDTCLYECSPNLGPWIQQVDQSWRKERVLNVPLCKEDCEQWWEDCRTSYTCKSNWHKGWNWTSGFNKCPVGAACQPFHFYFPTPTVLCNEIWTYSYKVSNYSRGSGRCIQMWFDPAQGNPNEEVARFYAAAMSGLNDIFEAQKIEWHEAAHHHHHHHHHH
T1 sequence (P41439 with tags, fused parts or gaps): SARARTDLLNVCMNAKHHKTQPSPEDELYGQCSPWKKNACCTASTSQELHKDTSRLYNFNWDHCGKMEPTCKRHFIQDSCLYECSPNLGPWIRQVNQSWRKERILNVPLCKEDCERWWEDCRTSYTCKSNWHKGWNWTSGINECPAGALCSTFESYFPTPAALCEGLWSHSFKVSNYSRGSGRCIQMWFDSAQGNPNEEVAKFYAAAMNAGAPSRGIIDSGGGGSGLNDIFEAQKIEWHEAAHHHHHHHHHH

Molecule | HTRF IgG binding assay (% Delta F) Human FRγ (human FRγ) [% Delta F] | HTRF IgG binding assay (% Delta F) Mouse FRα (mouse FRα) [% Delta F] | HTRF IgG binding assay (% Delta F) Human FRα (human FRα [1]) [% Delta F] | HTRF IgG binding assay (% Delta F) Human FRβ (human FRβ) [% Delta F] | HTRF epitope competition assay, geomean IC50 (M), Comparator 1 IgG (human FRα [2]) | ka (cyno FRα [3]) [M⁻¹ s⁻¹] | kd (cyno FRα [3]) [s⁻¹] | AUClast [4] [µg·days/mL] | CL [4] [mL/day/kg] | Cmax [4] [µg/mL] | Vss [4] [L/kg] | t1/2 [4] [days] | ka (human FRα [5]) [M⁻¹ s⁻¹] | kd (human FRα [5]) [s⁻¹] | HTRF epitope competition assay, geomean IC50 (M), Comparator 3 IgG (human FRα [6]) | HTRF IgG binding assay (% Delta F) Cyno FRα (cyno FRα [7]) [% Delta F] | HTRF epitope competition assay, geomean IC50 (M), Comparator 2 IgG (human FRα [8]) | Retention time by HIC-HPLC [9] [min] | HP SEC % monomer ([10]; 4° C.) [%] | HP SEC % monomer ([10]; 45° C.) [%]
B1 | 1.31 | 1.63 | 270.58 | −0.38 | inhibited | 195000 | 0.000342 | 553 | 5.3 | 91.7 | 0.124 | 16.6 | 279000 | 0.000354 | no inhibition | 213.68 | inhibited | 1.96 | 100 | 97.3
B2 | −2.92 | −3.65 | 139.98 | 3.81 | inhibited | 101000 | 0.00016 | 430 | 8.6 | 86.0 | 0.132 | 11.0 | 145000 | 0.000135 | no inhibition | 85.16 | inhibited | 2.27 | 99.6 | 98.3
B3 | −1.17 | −5.66 | 126.25 | −5.87 | inhibited | 95800 | 0.00183 | 646 | 6.6 | 123.2 | 0.071 | 7.8 | 95700 | 0.00129 | no inhibition | 85.33 | inhibited | 2.12 | 99.2 | 96.6
B4 | 9.2 | −5.22 | 225.19 | −3.26 | inhibited | 475000 | 0.000508 | 455 | 5.6 | 73.2 | 0.16 | 19.5 | 568000 | 0.000527 | inhibited | 141.47 | inhibited | 2.25 | 100 | 97.3
